The results in this text go back to publication PMC9708914 (iScience, 2022).

The data set “crystal structure” concerns the molecule itself. The data set is described as follows: crystal structure.
The data set “cross-linking” deals with the molecule itself. The data set is described as follows: cross-linking.

B1: Thermus thermophilus MgtE transmembrane (TM) domain (TtMgtE 268-450) (domain or fragment, UniProt Q5SMG8 268-450, looked up)
chain: VPDLVYSEAGPVALWLARVRWLVILILTGMVTSSILQGFESVLEAVTALAFYVPVLLGTGGNTGNQSATLIIRALATRDLDLRDWRRVFLKEMGVGLLLGLTLSFLLVGKVYWDGHPLLLPVVGVSLVLIVFFANLVGAMLPFLLRRLGVDPALVSNPLVATLSDVTGLLIYLSVARLLLEAV
For the protein B1, in the data set “crystal structure”, the binding result is “binds”.

B2: MgtE ΔN T336C/L421C (TtMgtE 130-450, T336C/L421C) (domain or fragment, Thermus thermophilus, UniProt Q5SMG8 130-450, looked up)
chain: EEDEAGGLMTPEYVAVREGMTVEEVLRFLRRAAPDAETIYYIYVVDEKGRLKGVLSLRDLIVADPRTRVAEIMNPKVVYVRTDTDQEEVARLMADYDFTVLPVVDEEGRLVGIVTVDDVLDVLEAEATEDIHKLGAVDVPDLVYSEAGPVALWLARVRWLVILILTGMVTSSILQGFESVLEAVTALAFYVPVLLGTGGNTGNQSACLIIRALATRDLDLRDWRRVFLKEMGVGLLLGLTLSFLLVGKVYWDGHPLLLPVVGVSLVLIVFFANLVGAMLPFLLRRLGVDPACVSNPLVATLSDVTGLLIYLSVARLLLEAV
The stoichiometry N is a count of units in the complex or per binding partner. Turning to B2, the “stoichiometry N” value in “cross-linking” amounted to 2.
